# T1: bovine fibrinogen (Sigma Company), P02672
# T1 chain 1: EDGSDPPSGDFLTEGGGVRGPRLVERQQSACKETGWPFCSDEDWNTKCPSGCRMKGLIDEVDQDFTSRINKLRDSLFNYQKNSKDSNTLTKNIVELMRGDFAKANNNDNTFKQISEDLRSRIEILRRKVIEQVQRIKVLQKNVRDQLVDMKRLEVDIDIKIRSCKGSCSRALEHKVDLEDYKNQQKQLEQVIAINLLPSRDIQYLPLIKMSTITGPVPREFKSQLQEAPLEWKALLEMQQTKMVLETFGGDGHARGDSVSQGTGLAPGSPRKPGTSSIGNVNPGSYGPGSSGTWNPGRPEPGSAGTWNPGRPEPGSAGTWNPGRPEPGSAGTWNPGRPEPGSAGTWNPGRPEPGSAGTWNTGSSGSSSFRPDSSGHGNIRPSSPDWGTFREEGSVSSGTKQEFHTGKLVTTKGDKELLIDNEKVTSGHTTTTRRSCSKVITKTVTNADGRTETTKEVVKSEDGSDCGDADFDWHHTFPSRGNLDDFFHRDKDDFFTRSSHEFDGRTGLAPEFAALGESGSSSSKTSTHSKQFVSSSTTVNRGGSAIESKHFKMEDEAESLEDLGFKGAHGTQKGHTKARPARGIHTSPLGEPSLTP
# T1 chain 2: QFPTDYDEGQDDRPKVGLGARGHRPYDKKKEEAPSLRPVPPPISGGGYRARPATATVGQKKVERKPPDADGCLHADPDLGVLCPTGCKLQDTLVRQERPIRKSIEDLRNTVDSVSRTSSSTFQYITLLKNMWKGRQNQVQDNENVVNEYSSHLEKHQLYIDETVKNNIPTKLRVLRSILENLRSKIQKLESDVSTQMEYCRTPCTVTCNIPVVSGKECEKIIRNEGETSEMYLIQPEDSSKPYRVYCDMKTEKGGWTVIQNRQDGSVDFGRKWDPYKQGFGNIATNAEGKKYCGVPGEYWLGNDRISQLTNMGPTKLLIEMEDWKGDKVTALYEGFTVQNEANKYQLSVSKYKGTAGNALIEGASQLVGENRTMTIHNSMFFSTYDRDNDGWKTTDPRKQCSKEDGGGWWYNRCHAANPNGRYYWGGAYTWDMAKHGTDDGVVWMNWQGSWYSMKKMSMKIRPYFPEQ
# T1 chain 3: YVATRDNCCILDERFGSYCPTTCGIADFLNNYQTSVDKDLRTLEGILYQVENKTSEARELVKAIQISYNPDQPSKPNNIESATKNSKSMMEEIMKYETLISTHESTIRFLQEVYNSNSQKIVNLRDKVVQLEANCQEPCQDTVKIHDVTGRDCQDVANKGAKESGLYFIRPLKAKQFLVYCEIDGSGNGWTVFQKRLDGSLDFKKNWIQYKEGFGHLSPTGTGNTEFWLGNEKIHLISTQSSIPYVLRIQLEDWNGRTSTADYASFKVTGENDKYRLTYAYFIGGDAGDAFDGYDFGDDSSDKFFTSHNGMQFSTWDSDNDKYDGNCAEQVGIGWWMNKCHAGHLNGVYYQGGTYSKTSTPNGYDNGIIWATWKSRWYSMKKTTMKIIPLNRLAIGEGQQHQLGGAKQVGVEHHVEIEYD
# T2: human fibrinogen, P02671
# T2 chain 1: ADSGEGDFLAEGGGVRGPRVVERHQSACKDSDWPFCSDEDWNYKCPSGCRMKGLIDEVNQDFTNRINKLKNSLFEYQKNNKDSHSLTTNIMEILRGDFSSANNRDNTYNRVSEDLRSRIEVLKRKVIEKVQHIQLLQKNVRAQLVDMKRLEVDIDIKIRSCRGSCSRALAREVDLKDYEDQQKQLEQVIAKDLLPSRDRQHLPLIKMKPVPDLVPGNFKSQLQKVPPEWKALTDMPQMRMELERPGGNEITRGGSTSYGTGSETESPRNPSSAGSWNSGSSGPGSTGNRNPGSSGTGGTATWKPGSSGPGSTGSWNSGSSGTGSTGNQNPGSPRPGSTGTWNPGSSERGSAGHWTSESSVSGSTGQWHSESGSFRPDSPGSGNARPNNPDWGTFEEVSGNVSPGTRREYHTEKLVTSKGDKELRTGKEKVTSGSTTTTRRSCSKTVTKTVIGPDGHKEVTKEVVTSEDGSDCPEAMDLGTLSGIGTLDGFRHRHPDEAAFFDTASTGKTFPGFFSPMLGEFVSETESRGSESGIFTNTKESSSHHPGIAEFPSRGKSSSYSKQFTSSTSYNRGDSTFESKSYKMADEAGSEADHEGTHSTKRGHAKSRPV
# T2 chain 2: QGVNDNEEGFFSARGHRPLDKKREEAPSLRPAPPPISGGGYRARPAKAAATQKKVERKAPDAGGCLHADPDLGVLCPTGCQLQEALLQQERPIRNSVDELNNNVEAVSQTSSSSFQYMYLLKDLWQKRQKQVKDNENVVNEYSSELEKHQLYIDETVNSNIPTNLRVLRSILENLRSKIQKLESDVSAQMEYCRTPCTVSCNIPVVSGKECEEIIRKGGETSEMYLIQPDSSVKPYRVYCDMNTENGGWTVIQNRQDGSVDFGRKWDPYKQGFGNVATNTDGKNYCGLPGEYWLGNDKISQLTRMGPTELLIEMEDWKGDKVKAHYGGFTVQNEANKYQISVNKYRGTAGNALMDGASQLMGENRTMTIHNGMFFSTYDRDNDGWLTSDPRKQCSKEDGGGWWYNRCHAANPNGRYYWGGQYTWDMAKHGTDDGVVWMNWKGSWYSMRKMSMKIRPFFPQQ
# T2 chain 3: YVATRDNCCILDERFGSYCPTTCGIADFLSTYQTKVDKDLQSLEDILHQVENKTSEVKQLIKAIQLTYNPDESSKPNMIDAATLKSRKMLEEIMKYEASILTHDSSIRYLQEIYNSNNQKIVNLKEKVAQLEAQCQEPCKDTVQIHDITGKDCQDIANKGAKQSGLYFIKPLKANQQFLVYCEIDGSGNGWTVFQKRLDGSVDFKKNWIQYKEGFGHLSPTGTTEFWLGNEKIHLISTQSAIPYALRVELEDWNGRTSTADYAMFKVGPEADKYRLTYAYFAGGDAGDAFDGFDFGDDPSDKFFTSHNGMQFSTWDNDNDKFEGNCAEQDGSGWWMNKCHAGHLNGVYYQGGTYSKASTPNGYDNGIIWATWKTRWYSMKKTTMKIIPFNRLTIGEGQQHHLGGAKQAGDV
# B1: hemocoagulase of Agkistrodon acutus (protein)
# chain 1: DCSSGWSSYEGHCYKVFKQSKTWADAESFCTKQVNGGHLVSLESSGEADFVGQLLAQKLKSAKLHVWLGLRAQNKEKQCSLQWSDGSSLSYENWLEEESKKCLGVHLETGFHKWENFYCEQQDPFVCEA
# chain 2: DCPSDWSSYEGHCYKPFNEPKNWADAENFCTKQHTGGHLVSFQSTEEADFVVKLAFQTFDYGLFWFGLSKLWNQCNWQWSNAAMLKYTDWAEESYCVYFKSTNNKWRSLTCRMLANFVCEFQA
# Tests used:
# [1] = target: T1, bovine fibrinogen (Sigma Company), …
# human fibrinogen, P02671 = target: T2, human fibrinogen, P02671
protein,measurement,setting,value
B1,"Agglutination time (tube 1#, 10 µl distilled water added)",[1],50 s
same,"Agglutination time (tube 2#, 10 µl isopropanol added)",[1],50 s
same,"Agglutination time (tube 3#, 10 µl PMSF added)",[1],more than 600 seconds
same,"hydrolysis of human fibrinogen, SDS-PAGE after 0.5 h, 1 h, 2 h and 4 h at 37° C.","human fibrinogen, P02671","After the fibrinogen was treated with the hemocoagulase (1 unit) for 0.5 h and 1 h, the band of alpha subunit became gradually light, and after being treated for 2 h and 4 h, the band of alpha subunit disappeared completely"

# Source: patent US20110263000
